Test results: patent US8361793B2, “Monoclonal antibodies against gonadotropin-releasing hormone receptor” (Vancouver Biotech Ltd., priority 2009, dated 2013)

T1: GnRH receptor on OC-3-VGH cancer cells (Homo sapiens, UniProt P30968)
T1 construct: endogenous in cells; host or cells: OC-3-VGH ovarian cancer cells
T1 sequence (P30968 1-328): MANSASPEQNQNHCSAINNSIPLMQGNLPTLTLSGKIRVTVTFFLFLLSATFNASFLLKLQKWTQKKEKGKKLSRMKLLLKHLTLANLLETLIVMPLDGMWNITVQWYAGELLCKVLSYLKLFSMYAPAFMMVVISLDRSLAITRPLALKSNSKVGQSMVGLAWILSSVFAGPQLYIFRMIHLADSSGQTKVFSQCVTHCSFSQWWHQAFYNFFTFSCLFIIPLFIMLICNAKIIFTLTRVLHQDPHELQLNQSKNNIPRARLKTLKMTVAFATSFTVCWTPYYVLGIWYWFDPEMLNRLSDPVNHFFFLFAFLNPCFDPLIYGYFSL

T2: human GnRH receptor (Homo sapiens, UniProt P30968)
T2 construct: endogenous in cells; host or cells: OC-3-VGH ovarian cancer cells
T2 sequence (P30968 1-328): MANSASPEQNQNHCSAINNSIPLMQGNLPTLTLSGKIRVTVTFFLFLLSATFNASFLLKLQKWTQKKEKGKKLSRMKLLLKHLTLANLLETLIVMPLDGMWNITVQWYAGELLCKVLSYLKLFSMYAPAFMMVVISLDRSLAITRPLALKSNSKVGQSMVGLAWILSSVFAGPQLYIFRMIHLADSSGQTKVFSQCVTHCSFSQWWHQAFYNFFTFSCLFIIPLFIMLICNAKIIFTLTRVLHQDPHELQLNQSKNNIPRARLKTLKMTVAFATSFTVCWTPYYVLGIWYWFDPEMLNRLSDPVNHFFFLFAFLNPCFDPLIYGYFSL

T3: synthetic peptide corresponding to the N-terminal 1-29 amino acid residues of human GnRH receptor (Homo sapiens, UniProt P30968)
T3 construct: purchased Gemed Lab, South San Francisco, Calif. and Genescript, NJ (custom synthesis)
T3 sequence (P30968 1-29 limits assumed): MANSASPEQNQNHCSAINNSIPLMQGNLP


What was measured:
[1] = tested on: OC-3-VGH ovarian cancer cells; experiment: MTT assay, anti-proliferative effects; assay type: cell-based, human; settings: 48 hrs; GnRH 0.1 μg/ml, Antide 0.1 and 0.2 μg/ml, GHR-106 10 and 20 μg/ml
Method: Anti-proliferative effects of GnRH and GHR-106 monoclonal antibody on the growth of cultured cancer cells were also studied by MTT assay. An MTT assay was performed on cancer cells on a 24-well plate, as described by Choi, J-H, et al., Endocrine-Related Cancer (2006) 13:641-651.
1×10^4 Cells were dispensed into each well and cultured for 48 hours. Following removal of cultured media, fresh medium containing GnRH (0.1 μg/ml) or GHR-106 (10 μg/ml) was added to each well for additional 48 hours incubation. After the culture medium was removed, 200 μl of MTT (3-(4,5-dimethylthiazol-2-yl)-2,5-diphenyltetrazoliumbromide) (2.5 mg/ml in PBS, Sigma) was added to each well. After 5 hours of incubation with MTT at 37° C. in a 5% CO2 incubator, the supernatant was removed, and 200 μl of dimethylsulfoxide (DMSO) was added to each well, and shaking at 150 rpm for 5 min. Absorbance at 560 nm was determined spectrophotometrically. The negative control containing cells without any antibody treatment served as the negative control.

[2] = tested on: ribosomal proteins (P0, P1, P2 and L37) mRNA in OC-3-VGH cancer cells; experiment: Semi-quantitative RT-PCR of mRNA expression of ribosomal proteins; assay type: cell-based, human; settings: 24 hours, GHR-106 10 μg/ml, GnRH 0.1 μg/ml, relative to GAPDH
Source text: Four ribosomal proteins (P0, P1, P2 and L37) were selected for semi-quantitative analysis of mRNA expression. Expression of mRNA of GAPDH gene was used as the internal control. Primers for amplification were as follows:
A housekeeping gene, glyceraldehyde-3-phosphate dehydrogenase (GAPDH) was amplified to check the functional integrity of cDNA and used as internal control by using 5′-[…]-3′ (sense) (SEQ ID NO:20) and 5′-[…]-3′ (antisense) (SEQ ID NO:21) as primers (805 bp) (11).
RNA extraction, cDNA preparation and PCR amplification were conducted as described above in Preparation A.
Percent changes in RT-PCR signals which represent levels of P0, P1, P2, and L37 ribosomal proteins are presented with respect to GAPDH (100%) at 0 and 24 hrs. Messenger RNA expression of these genes of cultured cells without GHR-106 treatment served as the internal negative control and those with GnRH treatment served as positive control.

[3] = target: T1, GnRH receptor on OC-3-VGH cancer cells; experiment: Competition with GHR-106 for binding to microwells coated with OC-3-VGH cancer cells; settings: 2 μg/ml GHR-106; GnRH 0.1 to 10 μg/ml
Method: (§1) Microwells coated with synthetic peptide or cancer cells were used to estimate the affinity constant between GHR-106 and GnRH receptor. Following one hour incubation at 37° C. with GHR-106 in microwells, goat anti-mouse IgG labeled with alkaline phosphatase served as the second antibody for signal detection with p-nitrophenylphosphate.
The decrease in relative signal intensity of antibody binding to cancer cells with increasing GnRH concentrations ranging from 0.1 to 10 μg/ml is shown in FIG. 3A.

[4] = tested on: DU-145; experiment: TUNEL apoptosis assay, DU-145; assay type: cell-based, human; settings: 24-hour treatment
[5] = tested on: MDA-MB-435S; experiment: TUNEL apoptosis assay, MDA-MB-435S; assay type: cell-based, human; settings: 24-hour treatment
[6] = tested on: A549; experiment: TUNEL apoptosis assay, A549; assay type: cell-based, human; settings: 24-hour treatment
[7] = tested on: OC-3-VGH cancer cells; experiment: ELISA, dose-dependent binding to microwells coated with cancer cells; design: species or system human; settings: one hour incubation at 37° C.
Method: as §1

[8] = target: T2, human GnRH receptor; experiment: Western blot assay of OC-3-VGH ovarian cancer cell extract; assay type: binding; settings: OC-3-VGH cancer cell extract
Method: Western blot assay was performed with GHR-106 using alkaline phosphatase-labeled goat anti-mouse IgG as the detecting probe.

[9] = target: T3, synthetic peptide corresponding to the N-terminal 1-29 amino acid residues of human GnRH receptor; experiment: ELISA, dose-dependent binding to microwells coated with synthetic peptide; settings: one hour incubation at 37° C.
Method: as §1

Molecule	molecular weight of protein band recognized in Western blot [8]	dose-dependent binding to 1-29 synthetic peptide coated onto microwells [9]	anti-proliferative effect (relative absorbance at 560 nm normalized with negative control) [1]	mRNA expression of four ribosomal proteins (P0, P1, P2 and L37) [2]	% Apoptosis (Negative Control*) ([4]; DU-145, 10 μg/mL)	% Apoptosis (Negative Control*) ([4]; DU-145, 20 μg/mL)	% Apoptosis (Negative Control*) ([5]; 20 μg/mL)	% Apoptosis (Negative Control*) ([6]; A549, 10 μg/mL)	% Apoptosis (Negative Control*) ([6]; A549, 20 μg/mL)	dose-dependent binding to OC-3-VGH cancer cells coated on microwells [7]	further results
Antide	–	–	induce apoptosis, although to a much lesser extent	–	–	–	–	–	–	–	–
Gonadotropin releasing hormone [GnRH I, reference compound]	–	–	significantly inhibit the growth of cultured cancer cells	down regulation of mRNA expression	–	–	–	–	–	–	–
MANSASPEQNQNHCSAINNSIPLMQGNLP (SEQ ID NO:7) (PEPTIDE (1)...(29) extracellular domain of human GnRH receptor; listed as Homo sapiens) [1-29 synthetic peptide, synthetic peptide corresponding to N-terminal residues 1-29 of human GnRH receptor]	–	–	–	–	–	–	–	–	–	–	inhibition of the binding of GHR-106 to cancer cells coated on microwells [3]: inhibit GHR-106 binding
RP215: antibody used as positive control in the apoptosis assay [reference compound]	–	–	–	–	32 ± 7 (12 ± 3)^+ %	43 ± 4 (19 ± 15)^− %	37 ± 8 (6 ± 1)^+ %	30 ± 9 (11 ± 5)^+ %	36 ± 12 (17 ± 3)^+ %	–	–

Second part, led by results:

molecular weight of protein band recognized in Western blot [8]	dose-dependent binding to 1-29 synthetic peptide coated onto microwells [9]	Molecule	anti-proliferative effect (relative absorbance at 560 nm normalized with negative control) [1]	mRNA expression of four ribosomal proteins (P0, P1, P2 and L37) [2]	% Apoptosis (Negative Control*) ([4]; DU-145, 10 μg/mL)	% Apoptosis (Negative Control*) ([4]; DU-145, 20 μg/mL)	% Apoptosis (Negative Control*) ([5]; 20 μg/mL)	% Apoptosis (Negative Control*) ([6]; A549, 10 μg/mL)	% Apoptosis (Negative Control*) ([6]; A549, 20 μg/mL)	dose-dependent binding to OC-3-VGH cancer cells coated on microwells [7]	further results
approximately 60 KDa	dose-dependent binding	GHR-106: monoclonal antibody against synthetic peptide of positions 1-29 of the extracellular domain of human GnRH receptor; hybridoma ATCC PTA-10252 (antibody, V domains shown, Synthetically constructed monoclonal antibody GHR106) VL: MDSQAQVLILLLLWVSGTCGDIVMSQSPSSLAVSAGEKVTMSCKSSQSLLNSRTRKNYLAWYQQKPGQSPKLLIYWASTRESGVPDRFTGSGSGTDFTLTISSVQAEDLAVYYCKQSYNLYTFGGGTKLEIK VH: QVQLKESGPGLVAPSQSLSITCTVSGFSLSRYSVHWVRQPPGKGLEWLGMIWGGGSTDYNSALKSRLSISKDNSKSQVFLKMNSLQTDDTAMYYCARGNDGYYSFAYWGQGTLVTVSS	significantly inhibit the growth of cultured cancer cells	significant decrease in expression	32 ± 2 (12 ± 3)^+ %	32 ± 5 (19 ± 15)^− %	45 ± 11 (6 ± 1)^+ %	34 ± 10 (11 ± 5)^+ %	46 ± 11 (17 ± 3)^+ %	dose-dependent binding	% Apoptosis (Negative Control*) ([5]; 10 μg/mL): 31 ± 4 (7 ± 2)^+ %
60 KDa	dose-dependent binding	GHR-103: monoclonal antibody to human GnRH receptor; amino acid sequence determined to be the same as that of GHR-106 (antibody, V domains shown) VL: MDSQAQVLILLLLWVSGTCGDIVMSQSPSSLAVSAGEKVTMSCKSSQSLLNSRTRKNYLAWYQQKPGQSPKLLIYWASTRESGVPDRFTGSGSGTDFTLTISSVQAEDLAVYYCKQSYNLYTFGGGTKLEIK VH: QVQLKESGPGLVAPSQSLSITCTVSGFSLSRYSVHWVRQPPGKGLEWLGMIWGGGSTDYNSALKSRLSISKDNSKSQVFLKMNSLQTDDTAMYYCARGNDGYYSFAYWGQGTLVTVSS	–	–	–	–	–	–	–	dose-dependent binding	–
